These results are taken from paper PMC3005950.

Assay [1] addresses IL-7Ralpha ECD (Homo sapiens) (UniProt P16871). Particulars: cited from earlier work.
Assay [2] deals with IL-7 receptor alpha chain extracellular domain, glycosylated, IL-7Ralpha (CHO) (UniProt P16871). Put plainly: SPR. Particulars: pH 7.4, 298 K, 10 mM HEPES (pH 7.4).
Assay [3] concerns the target IL-7 receptor alpha chain extracellular domain, nonglycosylated, IL-7Ralpha (EC) (UniProt P16871). Put plainly: SPR. Particulars: pH 7.4, 298 K, 10 mM HEPES (pH 7.4).

One may read the Kd as the equilibrium constant for the complex coming apart. IL-7 (from UniProt P13232): the Kd in assay [1] was 60 nM.
On to Interleukin-7 (IL-7), for which the “ΔG^o” value in assay [2] (50 mM NaCl) is -11.8 kcal/mol; in assay [2] (1 M NaCl), -8.33 kcal/mol; in assay [3] (50 mM NaCl), -7.72 kcal/mol; in assay [3] (300 mM NaCl) it was -4.68 kcal/mol. In addition, the k−1 in assay [3] (300 mM NaCl) stood at 0.121 s⁻¹.
